The test has as its target extracellular domain of hCTLA-4 (Homo sapiens) (UniProt P16410). In words: SPR. Background: Surface plasmon resonance follows binding to a sensor surface in real time, without labels.

The values that follow come from publication PMC7039627.

Sequence of UniProt P16410 (P16410 36-161): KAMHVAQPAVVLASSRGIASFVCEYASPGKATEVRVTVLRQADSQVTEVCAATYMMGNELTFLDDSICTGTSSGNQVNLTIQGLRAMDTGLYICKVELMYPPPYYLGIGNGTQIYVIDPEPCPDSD

The term Kd denotes the concentration at which binding is half-saturated. Read a high Kd as a looser complex. Ipilimumab (antibody) showed a Kd of 3.68 nM.
